{"source": "the supplement of paper PMC12764529", "key": {"[1]": {"experiment": "folding stability dG unfold from trypsin proteolysis; higher = more stable", "method": "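Folding stability of de novo designed mini-proteins (<80 aa, no Cys; designed by TrROS, TrMRF, ProteinMPNN and the joint model) was measured by cDNA display proteolysis with trypsin and chymotrypsin. Each protease was used at 11 concentrations in a threefold dilution series plus a no-protease condition. K50 was inferred by Bayesian fitting of sequencing counts, and dG unfold was derived against a sequence-predicted unfolded-state K50 (Tsuboyama et al. method). Sequences shown include variable-length N-terminal GS-type padding (SAGGSAGG...) inside a display construct carrying a PA tag. Rows were kept only if the AF2 dimer inter-PAE was >15, to exclude likely homo-oligomers.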"}, "[2]": {"experiment": "folding stability dG unfold (combined trypsin and chymotrypsin); higher = more stable", "outline": "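Designed mini-proteins (under 80 residues, no cysteine) in a PA-tagged cDNA display construct were digested with trypsin and chymotrypsin. Each protease was used at 11 concentrations (threefold dilutions) plus a no-protease condition, followed by sequencing. K50 was inferred by Bayesian fitting of sequencing counts, and unfolding free energy was derived against a sequence-predicted unfolded-state K50 and a shared folded-state K50, per protease or combined. Only designs with AlphaFold2 dimer inter-PAE above 15 were kept.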"}}, "note": "± gives the half width of the 95% confidence interval."}
{"sequence": "SAGGSAGGSAGGMENGKIEIYKKEKDTFIAKINNGDKVIIIEKIKSIEELKEALIELGYGSAGGSAGGSAGG [r7_91_TrMRF]", "values": [{"measurement": "folding stability dG unfold", "setting": "[1]", "value": "0.527 ± 0.029", "unit": "kcal/mol"}, {"measurement": "folding stability dG unfold", "setting": "[2]", "value": "0.136 ± 0.17", "unit": "kcal/mol"}]}
{"sequence": "SAGGSAGGSAGGMIEIEVEKEEEVKELAEKFGFKVEAEKIEDGKIIAKIEFIPEEELKKSAGGSAGGSAGGS [r10_218_TrMRF]", "values": [{"measurement": "folding stability dG unfold", "setting": "[1]", "value": "-0.839 ± 0.24", "unit": "kcal/mol"}, {"measurement": "folding stability dG unfold", "setting": "[2]", "value": "< -1", "unit": "kcal/mol"}]}
{"sequence": "SAGGSAGGSAGGMKPGEPVEIKIPVPGNGKKIPIEIPVGMPPEQARKFAKEIAEELEKNHSAGGSAGGSAGG [r7_957_TrROS]", "values": [{"measurement": "folding stability dG unfold", "setting": "[1]", "value": "-0.916 ± 0.2", "unit": "kcal/mol"}, {"measurement": "folding stability dG unfold", "setting": "[2]", "value": "< -1", "unit": "kcal/mol"}]}
{"sequence": "SAGGSAGGSAGGMPVEVTEVASVTTLPNGTTKITIKTPTGTVTFDDPSKIPSSILKLLSSAGGSAGGSAGGS [r10_748_JUSTAS]", "values": [{"measurement": "folding stability dG unfold", "setting": "[1]", "value": "0.703 ± 0.014", "unit": "kcal/mol"}, {"measurement": "folding stability dG unfold", "setting": "[2]", "value": "0.211 ± 0.1", "unit": "kcal/mol"}]}
{"sequence": "SAGGSAGGSAGGMPVVVINTPSEEEAEKEKAKLEEDPEYKDGPINFIYIPPGTLPENVPLSAGGSAGGSAGG [r7_976_JUSTAS]", "values": [{"measurement": "folding stability dG unfold", "setting": "[1]", "value": "0.286 ± 0.072", "unit": "kcal/mol"}, {"measurement": "folding stability dG unfold", "setting": "[2]", "value": "< -1", "unit": "kcal/mol"}]}
{"sequence": "SAGGSAGGSAGGMTETLDFNGEKVVVTELPPTNTYQVTTTTPGTGVPTTTAARKEEVLTSAGGSAGGSAGGS [r10_482_JUSTAS]", "values": [{"measurement": "folding stability dG unfold", "setting": "[1]", "value": "0.443 ± 0.045", "unit": "kcal/mol"}, {"measurement": "folding stability dG unfold", "setting": "[2]", "value": "-0.177 ± 0.28", "unit": "kcal/mol"}]}
{"sequence": "SAGGSAGGSAGGMTITLEFTTEEEVEAYAKEIGATKVEVTREKTETPEERIKATIEKPGSAGGSAGGSAGGS [r10_494_JUSTAS]", "values": [{"measurement": "folding stability dG unfold", "setting": "[1]", "value": "-0.365 ± 0.74", "unit": "kcal/mol"}, {"measurement": "folding stability dG unfold", "setting": "[2]", "value": "< -1", "unit": "kcal/mol"}]}
{"sequence": "SAGGSAGGSAGGMVVTVKVGDETIEIDTETGTATVTPPATGTTTTVPASEVEPITPELLSAGGSAGGSAGGS [r10_709_JUSTAS]", "values": [{"measurement": "folding stability dG unfold", "setting": "[1]", "value": "0.945 ± 0.076", "unit": "kcal/mol"}, {"measurement": "folding stability dG unfold", "setting": "[2]", "value": "0.123 ± 0.065", "unit": "kcal/mol"}]}
{"sequence": "SAGGSAGGSAGGMYVIKITMGDRPRSIMVPPDNPEEIKNQLRDLGYNIKEISVERFPPGSAGGSAGGSAGGS [r10_405_TrROS]", "values": [{"measurement": "folding stability dG unfold", "setting": "[1]", "value": "-0.749 ± 0.61", "unit": "kcal/mol"}, {"measurement": "folding stability dG unfold", "setting": "[2]", "value": "-0.787 ± 0.56", "unit": "kcal/mol"}]}
{"sequence": "SAGGSAGGSAGGPKTVTISGGPLEDLLEKLDNMPPDDTITIHHPGGYYTVKVENDKIKIVSAGGSAGGSAGG [r7_560_TrROS]", "values": [{"measurement": "folding stability dG unfold", "setting": "[1]", "value": "-0.416 ± 0.13", "unit": "kcal/mol"}, {"measurement": "folding stability dG unfold", "setting": "[2]", "value": "-0.69 ± 0.22", "unit": "kcal/mol"}]}
{"sequence": "SAGGSAGGSAGGPPEITVEHHPPNGYMTLTIPDGRPIEIPMPPNRPPSDVKNRAKDLIKSAGGSAGGSAGGS [r10_33_TrROS]", "values": [{"measurement": "folding stability dG unfold", "setting": "[1]", "value": "-0.457 ± 0.39", "unit": "kcal/mol"}, {"measurement": "folding stability dG unfold", "setting": "[2]", "value": "< -1", "unit": "kcal/mol"}]}
{"sequence": "SAGGSAGGSAGGRMYPITFPGKTIEDIEEEIEELPPNYQINIDHDENGHMKVWIMPPDDFSAGGSAGGSAGG [r7_662_TrROS]", "values": [{"measurement": "folding stability dG unfold", "setting": "[1]", "value": "-0.422 ± 0.33", "unit": "kcal/mol"}, {"measurement": "folding stability dG unfold", "setting": "[2]", "value": "< -1", "unit": "kcal/mol"}]}
{"sequence": "SAGGSAGGSAGGRTIHINGATPERIIKWLKEWPPDEPVEIHYHGPNNKHREIPIDELKKSAGGSAGGSAGGS [r10_732_TrROS]", "values": [{"measurement": "folding stability dG unfold", "setting": "[1]", "value": "-0.0271 ± 0.1", "unit": "kcal/mol"}, {"measurement": "folding stability dG unfold", "setting": "[2]", "value": "-0.669 ± 0.38", "unit": "kcal/mol"}]}
{"sequence": "SAGGSAGGSAGGSALDPSAKVTVDRGDGKLVAVHVYPPGGKPVVILLPEEDAKKILEEVSAGGSAGGSAGGS [r4_16_TrMRF]", "values": [{"measurement": "folding stability dG unfold", "setting": "[1]", "value": "0.416 ± 0.031", "unit": "kcal/mol"}, {"measurement": "folding stability dG unfold", "setting": "[2]", "value": "-0.726 ± 0.44", "unit": "kcal/mol"}]}
{"sequence": "SAGGSAGGSAGGSALDRPVPVLVTGSIPLDGKFEDALGAAKAIEEEFAPYGYIVLSDVHVSAGGSAGGSAGG [r17_197_TrMRF]", "values": [{"measurement": "folding stability dG unfold", "setting": "[1]", "value": "0.297 ± 0.048", "unit": "kcal/mol"}, {"measurement": "folding stability dG unfold", "setting": "[2]", "value": "-0.0552 ± 0.12", "unit": "kcal/mol"}]}
{"sequence": "SAGGSAGGSAGGSATVINIPASSLSEEEIEALAKALEEEDPSIKGPKIEKGDGTYTIVQSAGGSAGGSAGGS [r4_330_JUSTAS]", "values": [{"measurement": "folding stability dG unfold", "setting": "[1]", "value": "0.553 ± 0.046", "unit": "kcal/mol"}, {"measurement": "folding stability dG unfold", "setting": "[2]", "value": "-0.533 ± 0.23", "unit": "kcal/mol"}]}
{"sequence": "SAGGSAGGSAGGSDELLKELAQENGMKVTAEPMPEEGHFNIEVQSPNGKPIEIEIPLDDSAGGSAGGSAGGS [r4_121_TrROS]", "values": [{"measurement": "folding stability dG unfold", "setting": "[1]", "value": "0.128 ± 0.15", "unit": "kcal/mol"}, {"measurement": "folding stability dG unfold", "setting": "[2]", "value": "-0.0556 ± 0.26", "unit": "kcal/mol"}]}
{"sequence": "SAGGSAGGSAGGSGAEEAAKAVREAFPELGVPILVEVGYIPGTKELPVRVYIPSTRLELSAGGSAGGSAGGS [r4_312_TrMRF]", "values": [{"measurement": "folding stability dG unfold", "setting": "[1]", "value": "-0.294 ± 0.055", "unit": "kcal/mol"}, {"measurement": "folding stability dG unfold", "setting": "[2]", "value": "< -1", "unit": "kcal/mol"}]}
{"sequence": "SAGGSAGGSAGGSGMPQPTTVLTTEYYPPGVVVKKDIVYSPSGGAEEVEVSFYPSPELLSAGGSAGGSAGGS [r4_57_JUSTAS]", "values": [{"measurement": "folding stability dG unfold", "setting": "[1]", "value": "-1.08 ± 0.2", "unit": "kcal/mol"}, {"measurement": "folding stability dG unfold", "setting": "[2]", "value": "< -1", "unit": "kcal/mol"}]}
{"sequence": "SAGGSAGGSAGGSGNFDKDGNKLTVYYPNTKKPVTIDFPVEDIFEFIKNLPPNVAKVDASAGGSAGGSAGGS [r4_282_TrMRF]", "values": [{"measurement": "folding stability dG unfold", "setting": "[1]", "value": "-0.201 ± 0.049", "unit": "kcal/mol"}, {"measurement": "folding stability dG unfold", "setting": "[2]", "value": "-0.869 ± 0.4", "unit": "kcal/mol"}]}
{"sequence": "SAGGSAGGSAGGSGSMVVEKVSPEPNVTKTIFFEPPEEGLVITVETLEGDTWSSQIILQSAGGSAGGSAGGS [r4_484_JUSTAS]", "values": [{"measurement": "folding stability dG unfold", "setting": "[1]", "value": "0.657 ± 0.097", "unit": "kcal/mol"}, {"measurement": "folding stability dG unfold", "setting": "[2]", "value": "-0.0129 ± 0.3", "unit": "kcal/mol"}]}
